Measurements from US20170281809A1 (Novo Nordisk, published 2017).
Numbering of substitutions follows the chain as printed. Names and notes keep the numbering of the source. Values joined by “and” are separate entries in the source; they are usually repeats but may differ in a detail not shown here. Identical values can stand only once. Values belong to the binder of their own block, whether it stands above or below them.

Key:
[1] = biological target: single-chain NKG2A-CD94-mFc construct (human) (UniProt Q13241); test: SPR (Biacore T100); sc-NKG2A-CD94-mFc amine-coupled to CM5 chip, antibody 0.157-2.5 nM as analyte
[2] = biological target: single-chain NKG2A-CD94-mFc construct (human) (UniProt Q13241); test: SPR (Biacore T100); sc-NKG2A-CD94-mFc on CM5 chip, mutant at 0.75 nM or 1.5 nM
[3] = biological target: T1, CD94/NKG2A on cells (Ba/F3-CD94/NKG2A; NKL cells) (human, UniProt Q13241 1-179); test: flow cytometry on Ba/F3-CD94/NKG2A cells, APC-conjugated secondary antibody
T1 construct: whole, on cells
Procedure: The strength and specificity of humZ270 binding to CD94/NKG2A was tested in flow-cytometry, by analyzing the binding of in HEK293 cells produced wild-type Z270 (recZ270), chimeric Z270 with human IgG4 (chimZ270) or humanized Z270 (humZ270VL1/VH1) to Ba/F3 cells stably over-expressing either CD94/NKG2A or CD94/NKG2C. For this purpose, Ba/F3-CD94/NKG2A and -C cells were incubated with various concentrations of Z270 variants in tissue-culture medium containing 2% FCS, for at least 30 minutes on ice. Subsequently cells were washed, and the cells incubated in similar medium with APC conjugated secondary Ab's, again for at least 30 minutes on ice. After two times washing with ice-cold PBS, the binding of mAb's to cells was visualized using a BD Biosciences FACSarray.

[4] = biological target: T1, CD94/NKG2A on cells (Ba/F3-CD94/NKG2A; …); test: flow cytometry on Ba/F3-CD94/NKG2A cells, no HLA-E tetramer pre-incubation, APC-conjugated secondary antibody
Procedure: To test whether humZ270VL1/VH1 prevents ligand (i.e. HLA-E) binding to CD94/NKG2A, we analyzed whether humZ270 could prevent the binding of HLA-E tetramers to CD94/NKG2A over-expressing Ba/F3 cells (Ba/F3-CD94/NKG2A). For this, Ba/F3-CD94/NKG2A were incubated with 1) various concentrations of humZ270 or 2) first incubated with a saturing concentration of HLA-E tetramers (4.7 μg/ml) and then incubated with various concentrations of humZ270. All incubations were performed in tissue-culture medium containing 2% FCS, on ice. Subsequently, cells were incubated with APC-conjugated secondary antibodies specific for mouse Ab's, and analyzed by flow cytometry using a BD Biosciences FACSarray.

[5] = biological target: T1, CD94/NKG2A on cells (Ba/F3-CD94/NKG2A; …); test: flow cytometry on Ba/F3-CD94/NKG2A cells, APC-conjugated secondary antibody specific for human antibodies
Procedure: The specificity and efficacy of humZ270VL1/VH1, and various humZ270VL1/VH1 variants with back-mutations in the variable light (VL) or variable heavy (VH) regions were tested for binding to CD94/NKG2A in flow-cytometry. For this, Ba/F3-CD94/NKG2A cells were incubated with humZ270-L46F (VL), humZ270-148V (VL), humZ270-L46F/148V (VL), humZ270-V5Q (VH), humZ270-M69L (VH), humZ270-T71V (VH), humZ270-T73K (VH), humZ270-T75S (VH), humZ270-V5Q/M69L/T71V/T73K/T75S (VH), humZ270-M69L/T71V/T73K/T75S (VH) or two different batches of humZ270VL1/VH1 without back-mutations (“DK” and “CHN”). For this purpose, Ba/F3-CD94/NKG2A or -C cells were incubated with various concentrations of the humZ270 variants in tissue-culture medium containing 2% FCS, for at least 30 minutes on ice. The cells were then washed, and incubated in similar medium with APC conjugated secondary antibodies specific for human antibodies, again for at least 30 minutes on ice. After two times washing with ice-cold PBS, the binding of secondary antibodies to cells was visualized using a BD Biosciences FACSarray.

T1 sequence (chain, as listed by the source limits assumed, chain 1 of 2): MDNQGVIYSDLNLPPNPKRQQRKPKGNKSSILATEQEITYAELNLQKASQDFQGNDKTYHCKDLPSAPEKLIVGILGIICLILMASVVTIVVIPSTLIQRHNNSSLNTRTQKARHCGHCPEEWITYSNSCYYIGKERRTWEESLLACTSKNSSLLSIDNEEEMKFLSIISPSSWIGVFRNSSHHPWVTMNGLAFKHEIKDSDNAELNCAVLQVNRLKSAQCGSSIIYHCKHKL
T1 sequence (Q13241 whole entry, chain 2 of 2): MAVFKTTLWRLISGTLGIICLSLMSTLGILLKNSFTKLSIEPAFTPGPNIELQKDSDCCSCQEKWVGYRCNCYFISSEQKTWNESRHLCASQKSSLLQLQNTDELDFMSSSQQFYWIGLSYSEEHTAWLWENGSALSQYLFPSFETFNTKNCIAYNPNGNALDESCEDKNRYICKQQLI

Kd [1]: 0.0498 nM
koff [1]: 0.000397 s⁻¹
kon [1]: 7.97e+06 M⁻¹ s⁻¹
B1: chimeric Z270 antibody (antibody, human IgG4, V domains shown)
VH: QVQLQQPGAELVRPGASVKLSCKASGYTFTSYWMNWVKQRPEQGLQWIGRIDPYDSETHYSQKFKDKAILTVDKSSSTAYMRLSSLTSEDSAVYYCARGGYDFDVGTLYWFFDVWGAGTTVTVS
VL: DIQMTQSPASLSASVGETVTITCRASENIYSYLAWYQQKQGKSPQFLVYNAKTLAEGVPSRFSGSGSGTQFSLKINSLQPEDFGSYYCQHHYGTPRTFGGGTKLEIK

relative binding (binding level in RU divided by that of chimZ270) [2]: 20%
B2: Z270VH alanine mutant R94A (antibody, name in Kabat numbering, V domains shown)
VH: B1 VH with R98A
VL: B1 VL

EC50 (read off the curve) [3]: ~1 ng/mL
B3: wild-type Z270 produced in HEK293 cells (recZ270) (antibody, mouse IgG1, V domains shown)
VH: B1 VH
VL: B1 VL
notes: also called recombinant Z270

EC50 (read off the curve) [4]: ~30 ng/mL
EC50 (read off the curve) [5]: ~10 ng/mL and ~8 ng/mL
Kd [1]: 0.0665 nM
koff [1]: 0.000498 s⁻¹
kon [1]: 7.49e+06 M⁻¹ s⁻¹
B4: humZ270VL1/VH1 (antibody, human IgG4, V domains shown)
VH: QVQLVQSGAEVKKPGASVKVSCKASGYTFTSYWMNWVRQAPGQGLEWMGRIDPYDSETHYAQKLQGRVTMTTDTSTSTAYMELRSLRSDDTAVYYCARGGYDFDVGTLYWFFDVWGQGTTVTVS
VL: DIQMTQSPSSLSASVGDRVTITCRASENIYSYLAWYQQKPGKAPKLLIYNAKTLAEGVPSRFSGSGSGTDFTLTISSLQPEDFATYYCQHHYGTPRTFGGGTKVEIK
notes: No back-mutations; also called hZ270VL1/VH1; huZ270 with a humZ270VH1 heavy chain
